This note sets out measurements from patent US20190359653A1 (Genentech, published 2019).

The target of the assay is hFZD7 CRD-Fc (human, UniProt O75084 33-185). Briefly: spot phage ELISA.
For the molecule AAADDVASWCHVMY [SEQ ID NO 87], the S/N stood at 44.5 and the S/W is 2.3.

Consider VAADDLAAWCHVMY [SEQ ID NO 39], for which the S/N amounted to 60.7 and the S/W is 3.4.

Molecule VASDDLASWCHAMY [SEQ ID NO 62] gave a S/N of 53.5 and a S/W of 3.

APSDDVAFWCHVMY [SEQ ID NO 42] gave a S/N of 58.6 and a S/W of 3.1.

The molecule VASDDLASWCHVVY [SEQ ID NO 86] yielded a S/N of 44.8 and a S/W of 2.5.

For the molecule VPADALAVWCDVMY [SEQ ID NO 66], the S/N turned out to be 53 and the S/W was 2.9.

LPAADLAAWCHVMY [SEQ ID NO 82] registered a S/N of 48 and a S/W of 3.

LPADDLAAWCHVMY [SEQ ID NO 84] registered a S/N of 46.7 and a S/W of 3.1.

Consider VAADALEFWCHVMY [SEQ ID NO 55], for which the S/N was 54.2 and the S/W came out at 3.

LAADDLESWCHVMY [SEQ ID NO 60]: the S/N is 53.5 and the S/W came to 3.

Molecule AAADDLEAWCAVMY [SEQ ID NO 59] registered a S/N of 53.6 and a S/W of 3.1.

In turn, APSDDLEFWCHVMY [SEQ ID NO 44] yielded a S/N of 58.3 and a S/W of 3.1.

Molecule APSDDLAFWCDVMY [SEQ ID NO 91] had a S/N of 27.4 and a S/W of 3.1.

As for VPSDDLASWCHVMY [SEQ ID NO 68], the S/N worked out at 52.2 and the S/W came to 3.1.

Turning to AAADDLAAWCDVMY [SEQ ID NO 57], the S/N amounted to 54 and the S/W came to 3.1.

With APADDLAFWCHVVY [SEQ ID NO 74], the S/N was found to be 50.6 and the S/W is 3.2.

In turn, APADDLAFWCHVMY [SEQ ID NO 51] returned a S/N of 55.1 and a S/W of 3.

As to VPADDLASWCDVMY [SEQ ID NO 78], the S/N worked out at 49.2 and the S/W is 2.9.

Molecule VPADDLASWCHVMY [SEQ ID NO 63] gave a S/N of 53.4 and a S/W of 3.1.

On to VASDDLEAWCHVMY [SEQ ID NO 47], for which the S/N is 57 and the S/W worked out at 3.1.

On to VPSADLESWCHVMY [SEQ ID NO 69], for which the S/N was 52.2 and the S/W worked out at 2.9.

Regarding AASDDLAFWCHVMY [SEQ ID NO 77], the S/N came to 49.7 and the S/W stood at 3.1.

LPADDLAVWCDVMY [SEQ ID NO 52] had a S/N of 54.9 and a S/W of 3.1.

AASDDLAAWCHVMY [SEQ ID NO 49]: the S/N worked out at 55.7 and the S/W is 3.

AASDDLEAWCHVMY [SEQ ID NO 70] gave a S/N of 52.1 and a S/W of 3.1.

With LASDDLEFWCHVMY [SEQ ID NO 81], the S/N is 48.1 and the S/W was determined as 3.

In turn, APADDLEAWCHVMY [SEQ ID NO 45] had a S/N of 58.1 and a S/W of 3.1.

Consider AASDDLESWCHVMY [SEQ ID NO 50], for which the S/N stood at 55.6 and the S/W is 2.9.

Regarding APSDDLAFWCHVVY [SEQ ID NO 97], the S/N came to 45 and the S/W is 2.5.

For APADDLEFWCHVMY [SEQ ID NO 72], the S/N is 51.6 and the S/W is 3.

LPSDDLESWCHVMY [SEQ ID NO 53]: the S/N was 54.5 and the S/W came to 3.

As for APADDLEFWCHAMY [SEQ ID NO 89], the S/N was 36.3 and the S/W was found to be 1.9.

As to VPSDDLAFWCHVMY [SEQ ID NO 65], the S/N was 53.2 and the S/W turned out to be 3.

APSDDLAAWCHVVY [SEQ ID NO 56] had a S/N of 54 and a S/W of 2.9.

On to APADDLESWCHVMY [SEQ ID NO 96], for which the S/N was 53.9 and the S/W is 2.9.

Molecule AAADDLAFWCHVMY [SEQ ID NO 80] showed a S/N of 48.2 and a S/W of 3.1.

VPSADLETWCHVMY [SEQ ID NO 83] registered a S/N of 47.3 and a S/W of 2.8.

The molecule AAADDLEVWCHVMY [SEQ ID NO 54] returned a S/N of 54.4 and a S/W of 3.1.

In turn, APADDLAFWCDVMY [SEQ ID NO 90] came in with a S/N of 33.8 and a S/W of 3.

Molecule VPADDLAFWCHVMY [SEQ ID NO 67] had a S/N of 52.7 and a S/W of 3.1.

APSDDLASWCHVMY [SEQ ID NO 71] displayed a S/N of 52 and a S/W of 3.3.

LPSADLESWCHVMY [SEQ ID NO 79] registered a S/N of 48.6 and a S/W of 2.9.

PPADDLAFWCDVMY [SEQ ID NO 85] came in with a S/N of 44.9 and a S/W of 2.9.

With VASDDLEFWCHVMY [SEQ ID NO 58], the S/N turned out to be 54 and the S/W came out at 3.2.

Molecule APADDLASWCHVMY [SEQ ID NO 61] returned a S/N of 53.5 and a S/W of 3.2.

For APSDDLEFWCHAMY [SEQ ID NO 46], the S/N worked out at 57.2 and the S/W was 3.1.

Consider AAADDLEFWCHVMY [SEQ ID NO 48], for which the S/N came out at 56.1 and the S/W stood at 3.1.

Take APSDDLAAWCHVMY [SEQ ID NO 73]: the S/N was 51.3 and the S/W is 3.

AAADDLAFWCDVMY [SEQ ID NO 93] gave a S/N of 8.5 and a S/W of 2.7.

Turning to APADDVEFWCHVMY [SEQ ID NO 43], the S/N is 58.6 and the S/W came to 3.1.

With APADDLEFWCHVVY [SEQ ID NO 64], the S/N is 53.2 and the S/W worked out at 3.1.

The molecule LPADDLAFWCDVMY [SEQ ID NO 92] registered a S/N of 23.8 and a S/W of 2.8.

VAADDLAFWCDVMY [SEQ ID NO 88] showed a S/N of 40.7 and a S/W of 3.

For the molecule APSDDLEAWCDVMY [SEQ ID NO 75], the S/N turned out to be 50.2 and the S/W worked out at 2.7.

As to VPSDDLEAWCDVMY [SEQ ID NO 76], the S/N came to 49.8 and the S/W was 2.7.
